Assay results: US20090270318A1
Values joined by “and” are separate entries in the source; they are usually repeats but may differ in a detail not shown here. Identical values can stand only once.

How the values were obtained:
[1] = target: CXCL8 receptors on bovine peripheral blood neutrophils; test: 1000 ng/ml biotCXCL8 on medium-treated bovine neutrophils; streptavidin-enzyme and ABTS; ELISA plate reader
[2] = target: CXCL8 receptors on bovine peripheral blood neutrophils; test: displacement of 20 pM 125I-CXCL8 from 10^6 bovine neutrophils, 45 min on ice
[3] = target: CXCL8 receptors on bovine peripheral blood neutrophils; test: biotCXCL8 binding inhibition on bovine neutrophils; 10 ng/ml unlabeled CXCL8 2 h at 4 C, wash, then 1 ug/ml biotCXCL8; cell ELISA
[4] = target: CXCL8 receptors on bovine peripheral blood neutrophils; test: biotCXCL8 binding inhibition on bovine neutrophils; 10 ng/ml analogue 2 h at 4 C, wash, then 1 ug/ml biotCXCL8; cell ELISA
[5] = target: CXCL8 receptors on bovine peripheral blood neutrophils; test: cell-based or functional assay
[6] = target: CXCL8 receptors on bovine peripheral blood neutrophils; test: displacement of 20 pM 125I-CXCL8 from bovine neutrophils; reference is unlabeled wildtype CXCL8

For “biotinylated CXCL8 (from UniProt P79255 23-101) (ligand)”, the OD405 [1] was 0.5 to 0.6 OD405.

With “bovine CXCL8 (wild type, unlabeled) (from UniProt P79255 23-101) (ligand)” the IC50 [2] was 0.12 nM and the percent of ^biotCXCL8 binding blocked [3] was 30%.

B1: bovine CXCL8(3-74)K11R/G31P (ligand)
chain: TELRCQCIRTHSTPFHPKFIKELRVIESPPHCENSEIIVKLTNGNEVCLNPKEKWVQKVVQVFVKRAEKQDP
In the case of B1, the IC50 [2] is reported as 0.004 nM, the percent of ^biotCXCL8 binding blocked [4] is reported as 95% and the IC50, inhibition of bovine neutrophil chemotaxis to 1 µg/ml (129 nM) CXCL8 [5] is reported as 0.11 nM. The agonist activity: chemotaxis of bovine neutrophils to 100 ng/ml analogue, as percent of the response to 1 ng/ml CXCL8 [5] was 13.9%, the agonist activity: chemotaxis of bovine neutrophils to 100 ng/ml analogue, as percent of the response to 100 ng/ml CXCL8 [5] was 5.4% and the concentration for complete blocking of bovine neutrophil chemotaxis to 1 µg/ml CXCL8 [5] was 10 nM. The concentration for complete inhibition of bovine neutrophil chemotaxis to human CXCL5, CXCL1 or CXCL8 [5] was 3 nM and 20 nM, the concentration reducing bovine neutrophil chemotaxis to 1 ng/ml hCXCL1 to 50% [5] was 0.26 nM and the concentration reducing bovine neutrophil chemotaxis to 1 ng/ml hCXCL5 to 50% [5] was 0.06 nM. The concentration reducing bovine neutrophil chemotaxis to 10 ng/ml hCXCL8 by 50% [5] was 0.04 nM, the reduction of bovine neutrophil chemotactic response to 1 µg/ml (129 nM) CXCL8 by 12.9 pM analogue [5] was 33% and the fold more effective than wildtype CXCL8 in inhibiting 125I-CXCL8 binding [6] was 100 fold.

B2: bovine CXCL8(3-74)K11R/P32G (ligand)
chain: TELRCQCIRTHSTPFHPKFIKELRVIESGGHCENSEIIVKLTNGNEVCLNPKEKWVQKVVQVFVKRAEKQDP
For B2, the percent of ^biotCXCL8 binding blocked [4] was 48% and the agonist activity: chemotaxis of bovine neutrophils to 100 ng/ml analogue, as percent of the CXCL8 response [5] was 38.3%.
